In publication PMC8924000 (2022):

Target: recombinant YBX1 with a C-terminal 6×His tag (UniProt P67809 1-324)
Assay: BLI

Chain of recombinant YBX1 with a C-terminal 6×His tag (P67809 whole entry): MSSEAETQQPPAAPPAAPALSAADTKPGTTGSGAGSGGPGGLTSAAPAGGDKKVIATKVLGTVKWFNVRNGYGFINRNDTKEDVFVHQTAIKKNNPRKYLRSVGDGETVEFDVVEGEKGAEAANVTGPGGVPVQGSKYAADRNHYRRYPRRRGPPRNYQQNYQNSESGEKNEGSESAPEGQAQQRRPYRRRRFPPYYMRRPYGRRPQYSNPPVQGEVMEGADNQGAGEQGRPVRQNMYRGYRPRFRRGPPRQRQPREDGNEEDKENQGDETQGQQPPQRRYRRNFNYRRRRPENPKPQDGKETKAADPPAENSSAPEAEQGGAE

Kd: 0.0248 nM
B1: recombinant GSDME with a C-terminal 6×His tag (natural protein)
chain: MFAKATRNFLREVDADGDLIAVSNLNDSDKLQLLSLVTKKKRFWCWQRPKYQFLSLTLGDVLIEDQFPSPVVVESDFVKYEGKFANHVSGTLETALGKVKLNLGGSSRVESQSSFGTLRKQEVDLQQLIRDSAERTINLRNPVLQQVLEGRNEVLCVLTQKITTMQKCVISEHMQVEEKCGGIVGIQTKTVQVSATEDGNVTKDSNVVLEIPAATTIAYGVIELYVKLDGQFEFCLLRGKQGGFENKKRIDSVYLDPLVFREFAFIDMPDAAHGISSQDGPLSVLKQATLLLERNFHPFAELPEPQQTALSDIFQAVLFDDELLMVLEPVCDDLVSGLSPTVAVLGELKPRQQQDLVAFLQLVGCSLQGGCPGPEDAGSKQLFMTAYFLVSALAEMPDSAAALLGTCCKLQIIPTLCHLLRALSDDGVSDLEDPTLTPLKDTERFGIVQRLFASADISLERLKSSVKAVILKDSKVFPLLLCITLNGLCALGREHS
